Source: patent US20200234789A1, “DESIGNED PROTEINS FOR LIGAND BINDING” (THE REGENTS OF THE UNIVERSITY OF CALIFORNIA, priority 2017, published 2020)

Experiments:
Assay type in all cases: physicochemical
[1] = Hydrogen-deuterium exchange measurements by 2D 15N HSQC NMR
Procedure: FIGS. 5A-5F. Apo- and holo-PS1 share similar folded cores and differ in the binding region. FIG. 5A: 2D ^1H-^15N HSQC spectra acquired for apo- and holo-PS1. Experimental conditions: 0.78 mM at 298K, 50 mM NaPi, 100 mM NaCl, pH 7.5, in 5% D2O. Resonance assignments are indicated using the one-letter amino acid code. Signals arising from side chains (Asn HD2/ND2, Gln HE2/NE2, Arg HE/NE and Trp HE1/NE1) are also labeled. The residues belonging to the binding region and folded core are color-coded as in (FIG. 5B). Non-helical residues are labeled in cyan font face. […] A dashed box surrounds 90% of the backbone resonances of apo-PS1 and is also placed at the same position in the holo-PS1 spectrum. Arrows point to resonances of residues within the binding region that change dramatically upon binding of the cofactor. FIG. 5B: Solution NMR structures of apo-PS1 and holo-PS1. […] FIG. 5C: Hydrogen-deuterium exchange protection factors (PF) measured for apo- and holo-PS1, mapped onto the centroid structure of holo-PS1. Backbone amide nitrogens of residues with determined PFs are shown as spheres. […]
For the measurements of H/D exchange rates, a series of 2D ^15N HSQC spectra were obtained on a 900 MHz Bruker Avance II spectrometer. The first spectra were recorded 9 minutes after the dilution of 100 μl of a high concentration sample in H2O (2 mM for apo and 1.2 mM for holo) into 200 μl D2O buffer. […]

[2] = Circular dichroism: temperature and GnHCl induced unfolding; conditions: at 95° C.; CD at 222 nm; 50 mM NaPi, 100 mM NaCl, pH 7.5
Procedure: FIGS. 3A-3D. Biophysical characterization of apo- and holo-PS1. FIG. 3A: Electronic absorption and emission spectra of (CF3)4PZn/PS1 holo-protein and (CF3)4PZn in toluene solvent. […] FIG. 3B: Determination of KD by apo-PS1 titration into a buffer solution (100 mM NaCl, 50 mM NaPi, pH 7.5) of (CF3)4PZn with 1% w/v octyl-b-D-glucopyranoside. […] FIG. 3C: Circular dichroism (CD) spectra of apo- and holo-PS1 in 50 mM NaPi, 100 mM NaCl, pH 7.5 as a function of temperature. The transitions appear reversible based on the fact that the spectra are identical after cooling to room temperature. Units are in molar residue ellipticity. […] FIG. 3D: Pump-probe transient absorption spectra of (CF3)4PZn bound in the interior of holo-PS1 at 21° C. and 100° C. […] Inset exemplifies identical transient dynamics (primarily intersystem crossing from S1 to T1) at ΔAbs.=482 nm (scaled). Experimental conditions: solvent=50 mM NaPi, 100 mM NaCl, pH 7.5; excitation wavelength=600±5 nm; magic-angle polarization between pump and probe pulses; pump-probe cross-correlation of ˜250 fs.
FIG. 8. Temperature and GnHCl induced unfolding of apo-PS1. CD spectra at 222 nm of apo-PS1 as a function of temperature and denaturant (Guanidine HCl, GnHCl) concentration in 50 mM NaPi, 100 mM NaCl, pH 7.5 buffer. The midpoint for GnHCl-induced unfolding at 95° C. was approximately 4.5 M. […]

[3] = Analytical ultracentrifugation (equilibrium sedimentation), oligomeric state; conditions: analytical ultracentrifugation and gel filtration
Source text: FIG. 7A-7B. […] FIG. 7A: Analytical ultracentrifugation. Solutions of apo- and holo-PS1 were centrifuged at speeds ranging from 25,000 r.p.m. to 45,000 r.p.m. and monitored by absorbance at 280 nm. Parameters were globally fit to the data. Single-species fitting agrees well with the data over the entire range and yields the molecular weight of apo-PS1 […] and holo-PS1 12.24±0.91 kD, which agrees well with the 12.86 kD weight of PS1. […] Partial specific volumes were estimated from SEDNTERP^15 for amino acid side chains. FIG. 7B: Analytical gel filtration analysis of apo- and holo-PS1. Detection wavelengths are labeled as the same color as their respective curves. […] The small peak near 1.05 ml elution volume in holo-PS1 is unbound (excess), aggregated porphyrin eluting in the void volume of the superdex 75 5/150 column. Samples were run at concentrations of 100 μM and 37 μM for apo and holo, respectively, in 50 mM NaPi, 150 mM NaCl, pH 7.0 buffer.
The oligomeric state of apo- and holo-PS1 were determined by analytical equilibrium sedimentation performed at 25° C. using a Beckman XL-I analytical ultracentrifuge. Ultracentrifugation was conducted at speeds of 25K, 30K, 35K, 40K and 45K r.p.m., and the radial gradient profiles were obtained by absorbance at 280 nm. […]

B1: PS1: de novo designed porphyrin-binding four-helix bundle protein; designed sequence SEQ ID NO:1, expressed His-tag-cleaved sequence SEQ ID NO:2 (protein)
chain: SEFEKLRQTGDELVQAFQRLREIFDKGDDDSLEQVLEEIEELIQKHRQLFDNRQEAADTEAAKQGDQWVQLFQRFREAIDKGDKDSLEQLLEELEQALQKIRELAEKKN
- protection of the backbone surrounding the apolar core from solvent H/D exchange [1]: highly protected from exchange
- midpoint for GnHCl-induced unfolding [2]: approximately 4.5 M
- oligomeric state in solution [3]: monomeric
